This passage reports axon degeneration after axotomy, axon degeneration (degeneration index) after axotomy of wildtype DRG neurons and mitochondrial membrane potential (TMRM fluorescence) in severed axons of wildtype DRG neurons results from US20210187069A1.

The target in this assay is T1, wildtype SARM1 (endogenous, in wildtype mouse dorsal root ganglion neurons) (mouse) (UniProt Q6PDS3).
T1 sequence (looked up): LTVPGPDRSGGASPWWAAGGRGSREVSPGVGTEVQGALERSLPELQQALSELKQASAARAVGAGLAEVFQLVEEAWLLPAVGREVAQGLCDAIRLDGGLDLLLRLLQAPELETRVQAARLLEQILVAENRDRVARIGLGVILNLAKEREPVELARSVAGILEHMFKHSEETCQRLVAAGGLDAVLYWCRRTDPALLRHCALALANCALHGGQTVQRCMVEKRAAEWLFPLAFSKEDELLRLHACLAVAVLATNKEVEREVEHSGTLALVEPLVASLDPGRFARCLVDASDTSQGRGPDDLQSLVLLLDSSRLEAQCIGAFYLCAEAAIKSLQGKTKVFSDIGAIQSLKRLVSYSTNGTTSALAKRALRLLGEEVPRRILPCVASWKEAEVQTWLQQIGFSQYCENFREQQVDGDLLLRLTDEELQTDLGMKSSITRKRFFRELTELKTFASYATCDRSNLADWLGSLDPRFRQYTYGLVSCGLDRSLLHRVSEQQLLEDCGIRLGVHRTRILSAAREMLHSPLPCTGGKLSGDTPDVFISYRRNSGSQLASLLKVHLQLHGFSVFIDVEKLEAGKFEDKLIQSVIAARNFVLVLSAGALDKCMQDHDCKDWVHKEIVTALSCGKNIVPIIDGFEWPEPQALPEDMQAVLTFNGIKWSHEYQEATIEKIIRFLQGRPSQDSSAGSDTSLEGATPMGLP
As to the kind of experiment: cell-based or functional assay.

B1: SARM1 K628D (enzyme, not shown: large carriers)
chain: LAVPGPDGGGGTGPWWAAGGRGPREVSPGAGTEVQDALERALPELQQALSALKQAGGARAVGAGLAEVFQLVEEAWLLPAVGREVAQGLCDAIRLDGGLDLLLRLLQAPELETRVQAARLLEQILVAENRDRVARIGLGVILNLAKEREPVELARSVAGILEHMFKHSEETCQRLVAAGGLDAVLYWCRRTDPALLRHCALALGNCALHGGQAVQRRMVEKRAAEWLFPLAFSKEDELLRLHACLAVAVLATNKEVEREVERSGTLALVEPLVASLDPGRFARCLVDASDTSQGRGPDDLQRLVPLLDSNRLEAQCIGAFYLCAEAAIKSLQGKTKVFSDIGAIQSLKRLVSYSTNGTKSALAKRALRLLGEEVPRPILPSVPSWKEAEVQTWLQQIGFSKYCESFREQQVDGDLLLRLTEEELQTDLGMKSGITRKRFFRELTELKTFANYSTCDRSNLADWLGSLDPRFRQYTYGLVSCGLDRSLLHRVSEQQLLEDCGIHLGVHRARILTAAREMLHSPLPCTGGKPSGDTPDVFISYRRNSGSQLASLLKVHLQLHGFSVFIDVEKLEAGKFEDKLIQSVMGARNFVLVLSPGALDDCMQDHDCKDWVHKEIVTALSCGKNIVPIIDGFEWPEPQVLPEDMQAVLTFNGIKWSHEYQEATIEKIIRFLQGRSSRDSSAGSDTSLEGAAPMGPTATT
B1 came in with an axon degeneration after axotomy of 24 h.

B2: SARM1 C629S (enzyme, not shown: large carriers)
chain: LAVPGPDGGGGTGPWWAAGGRGPREVSPGAGTEVQDALERALPELQQALSALKQAGGARAVGAGLAEVFQLVEEAWLLPAVGREVAQGLCDAIRLDGGLDLLLRLLQAPELETRVQAARLLEQILVAENRDRVARIGLGVILNLAKEREPVELARSVAGILEHMFKHSEETCQRLVAAGGLDAVLYWCRRTDPALLRHCALALGNCALHGGQAVQRRMVEKRAAEWLFPLAFSKEDELLRLHACLAVAVLATNKEVEREVERSGTLALVEPLVASLDPGRFARCLVDASDTSQGRGPDDLQRLVPLLDSNRLEAQCIGAFYLCAEAAIKSLQGKTKVFSDIGAIQSLKRLVSYSTNGTKSALAKRALRLLGEEVPRPILPSVPSWKEAEVQTWLQQIGFSKYCESFREQQVDGDLLLRLTEEELQTDLGMKSGITRKRFFRELTELKTFANYSTCDRSNLADWLGSLDPRFRQYTYGLVSCGLDRSLLHRVSEQQLLEDCGIHLGVHRARILTAAREMLHSPLPCTGGKPSGDTPDVFISYRRNSGSQLASLLKVHLQLHGFSVFIDVEKLEAGKFEDKLIQSVMGARNFVLVLSPGALDKSMQDHDCKDWVHKEIVTALSCGKNIVPIIDGFEWPEPQVLPEDMQAVLTFNGIKWSHEYQEATIEKIIRFLQGRSSRDSSAGSDTSLEGAAPMGPTATT
B2 displayed an axon degeneration after axotomy of 24 h.

B3: SARM1-K193R (enzyme, not shown: large carriers)
chain: LAVPGPDGGGGTGPWWAAGGRGPREVSPGAGTEVQDALERALPELQQALSALKQAGGARAVGAGLAEVFQLVEEAWLLPAVGREVAQGLCDAIRLDGGLDLLLRLLQAPELETRVQAARLLEQILVAENRDRVARIGLGVILNLAKEREPVELARSVAGILEHMFRHSEETCQRLVAAGGLDAVLYWCRRTDPALLRHCALALGNCALHGGQAVQRRMVEKRAAEWLFPLAFSKEDELLRLHACLAVAVLATNKEVEREVERSGTLALVEPLVASLDPGRFARCLVDASDTSQGRGPDDLQRLVPLLDSNRLEAQCIGAFYLCAEAAIKSLQGKTKVFSDIGAIQSLKRLVSYSTNGTKSALAKRALRLLGEEVPRPILPSVPSWKEAEVQTWLQQIGFSKYCESFREQQVDGDLLLRLTEEELQTDLGMKSGITRKRFFRELTELKTFANYSTCDRSNLADWLGSLDPRFRQYTYGLVSCGLDRSLLHRVSEQQLLEDCGIHLGVHRARILTAAREMLHSPLPCTGGKPSGDTPDVFISYRRNSGSQLASLLKVHLQLHGFSVFIDVEKLEAGKFEDKLIQSVMGARNFVLVLSPGALDKCMQDHDCKDWVHKEIVTALSCGKNIVPIIDGFEWPEPQVLPEDMQAVLTFNGIKWSHEYQEATIEKIIRFLQGRSSRDSSAGSDTSLEGAAPMGPTATT
The molecule B3 had an axon degeneration (degeneration index) after axotomy of wildtype DRG neurons of 72 h.

B4: SARM1-H685Y (enzyme, not shown: large carriers)
chain: LAVPGPDGGGGTGPWWAAGGRGPREVSPGAGTEVQDALERALPELQQALSALKQAGGARAVGAGLAEVFQLVEEAWLLPAVGREVAQGLCDAIRLDGGLDLLLRLLQAPELETRVQAARLLEQILVAENRDRVARIGLGVILNLAKEREPVELARSVAGILEHMFKHSEETCQRLVAAGGLDAVLYWCRRTDPALLRHCALALGNCALHGGQAVQRRMVEKRAAEWLFPLAFSKEDELLRLHACLAVAVLATNKEVEREVERSGTLALVEPLVASLDPGRFARCLVDASDTSQGRGPDDLQRLVPLLDSNRLEAQCIGAFYLCAEAAIKSLQGKTKVFSDIGAIQSLKRLVSYSTNGTKSALAKRALRLLGEEVPRPILPSVPSWKEAEVQTWLQQIGFSKYCESFREQQVDGDLLLRLTEEELQTDLGMKSGITRKRFFRELTELKTFANYSTCDRSNLADWLGSLDPRFRQYTYGLVSCGLDRSLLHRVSEQQLLEDCGIHLGVHRARILTAAREMLHSPLPCTGGKPSGDTPDVFISYRRNSGSQLASLLKVHLQLHGFSVFIDVEKLEAGKFEDKLIQSVMGARNFVLVLSPGALDKCMQDHDCKDWVHKEIVTALSCGKNIVPIIDGFEWPEPQVLPEDMQAVLTFNGIKWSYEYQEATIEKIIRFLQGRSSRDSSAGSDTSLEGAAPMGPTATT
In turn, B4 yielded an axon degeneration (degeneration index) after axotomy of wildtype DRG neurons of 72 h.

B5: SARM1-H685A (enzyme, not shown: large carriers)
chain: LAVPGPDGGGGTGPWWAAGGRGPREVSPGAGTEVQDALERALPELQQALSALKQAGGARAVGAGLAEVFQLVEEAWLLPAVGREVAQGLCDAIRLDGGLDLLLRLLQAPELETRVQAARLLEQILVAENRDRVARIGLGVILNLAKEREPVELARSVAGILEHMFKHSEETCQRLVAAGGLDAVLYWCRRTDPALLRHCALALGNCALHGGQAVQRRMVEKRAAEWLFPLAFSKEDELLRLHACLAVAVLATNKEVEREVERSGTLALVEPLVASLDPGRFARCLVDASDTSQGRGPDDLQRLVPLLDSNRLEAQCIGAFYLCAEAAIKSLQGKTKVFSDIGAIQSLKRLVSYSTNGTKSALAKRALRLLGEEVPRPILPSVPSWKEAEVQTWLQQIGFSKYCESFREQQVDGDLLLRLTEEELQTDLGMKSGITRKRFFRELTELKTFANYSTCDRSNLADWLGSLDPRFRQYTYGLVSCGLDRSLLHRVSEQQLLEDCGIHLGVHRARILTAAREMLHSPLPCTGGKPSGDTPDVFISYRRNSGSQLASLLKVHLQLHGFSVFIDVEKLEAGKFEDKLIQSVMGARNFVLVLSPGALDKCMQDHDCKDWVHKEIVTALSCGKNIVPIIDGFEWPEPQVLPEDMQAVLTFNGIKWSAEYQEATIEKIIRFLQGRSSRDSSAGSDTSLEGAAPMGPTATT
Regarding B5, the axon degeneration (degeneration index) after axotomy of wildtype DRG neurons is 72 h.

B6: SARM1-E642A (enzyme, not shown: large carriers)
chain: LAVPGPDGGGGTGPWWAAGGRGPREVSPGAGTEVQDALERALPELQQALSALKQAGGARAVGAGLAEVFQLVEEAWLLPAVGREVAQGLCDAIRLDGGLDLLLRLLQAPELETRVQAARLLEQILVAENRDRVARIGLGVILNLAKEREPVELARSVAGILEHMFKHSEETCQRLVAAGGLDAVLYWCRRTDPALLRHCALALGNCALHGGQAVQRRMVEKRAAEWLFPLAFSKEDELLRLHACLAVAVLATNKEVEREVERSGTLALVEPLVASLDPGRFARCLVDASDTSQGRGPDDLQRLVPLLDSNRLEAQCIGAFYLCAEAAIKSLQGKTKVFSDIGAIQSLKRLVSYSTNGTKSALAKRALRLLGEEVPRPILPSVPSWKEAEVQTWLQQIGFSKYCESFREQQVDGDLLLRLTEEELQTDLGMKSGITRKRFFRELTELKTFANYSTCDRSNLADWLGSLDPRFRQYTYGLVSCGLDRSLLHRVSEQQLLEDCGIHLGVHRARILTAAREMLHSPLPCTGGKPSGDTPDVFISYRRNSGSQLASLLKVHLQLHGFSVFIDVEKLEAGKFEDKLIQSVMGARNFVLVLSPGALDKCMQDHDCKDWVHKAIVTALSCGKNIVPIIDGFEWPEPQVLPEDMQAVLTFNGIKWSHEYQEATIEKIIRFLQGRSSRDSSAGSDTSLEGAAPMGPTATT
B6 gave a mitochondrial membrane potential (TMRM fluorescence) in severed axons of wildtype DRG neurons of 24 h.
